Measured values reported in IntAct's records for PubMed 15949802.

B1: Peroxisomal targeting signal receptor (Saccharomyces cerevisiae), P35056 (parent)
chain: MDVGSCSVGNNPLAQLHKHTQQNKSLQFNQKNNGRLNESPLQGTNKPGISEAFISNVNAISQENMANMQRFINGEPLIDDKRRMEIGPSSGRLPPFSNVHSLQTSANPTQIKGVNDISHWSQEFQGSNSIQNRNADTGNSEKAWQRGSTTASSRFQYPNTMMNNYAYASMNSLSGSRLQSPAFMNQQQSGRSKEGVNEQEQQPWTDQFEKLEKEVSENLDINDEIEKEENVSEVEQNKPETVEKEEGVYGDQYQSDFQEVWDSIHKDAEEVLPSELVNDDLNLGEDYLKYLGGRVNGNIEYAFQSNNEYFNNPNAYKIGCLLMENGAKLSEAALAFEAAVKEKPDHVDAWLRLGLVQTQNEKELNGISALEECLKLDPKNLEAMKTLAISYINEGYDMSAFTMLDKWAETKYPEIWSRIKQQDDKFQKEKGFTHIDMNAHITKQFLQLANNLSTIDPEIQLCLGLLFYTKDDFDKTIDCFESALRVNPNDELMWNRLGASLANSNRSEEAIQAYHRALQLKPSFVRARYNLAVSSMNIGCFKEAAGYLLSVLSMHEVNTNNKKGDVGSLLNTYNDTVIETLKRVFIAMNRDDLLQEVKPGMDLKRFKGEFSF
partner: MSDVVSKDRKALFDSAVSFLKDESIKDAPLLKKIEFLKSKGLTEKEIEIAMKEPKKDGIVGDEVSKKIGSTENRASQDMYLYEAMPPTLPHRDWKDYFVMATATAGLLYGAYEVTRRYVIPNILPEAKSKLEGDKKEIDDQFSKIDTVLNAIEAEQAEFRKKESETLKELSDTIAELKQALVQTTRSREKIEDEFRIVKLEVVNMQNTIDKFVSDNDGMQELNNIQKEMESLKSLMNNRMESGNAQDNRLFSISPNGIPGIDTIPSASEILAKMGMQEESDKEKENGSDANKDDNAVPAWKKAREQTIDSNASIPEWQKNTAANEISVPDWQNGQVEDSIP

Variants of: B1
Conditions: with pex14_yeast PEX14, P53112

Variant | effect of a mutation on the interaction
W204A | decreasing interaction

Variants of: B1
Conditions: with pex14_yeast PEX14, P53112
Remark: another data set of the same source

Variant | effect of a mutation on the interaction
W120A;W204A | disrupting interaction
